Measured values from article PMC5027563, “Functional Recovery of AQP2 Recessive Mutations Through Hetero-Oligomerization with Wild-Type Counterpart” (Scientific Reports, 2016).
Substitutions are numbered along the chain they refer to. In names and notes the source's numbering stands.

Tests used:
[1] = target: T1, wild-type Aquaporin-2 (untagged) (human, UniProt P41181 1-271)
T1 sequence (looked up): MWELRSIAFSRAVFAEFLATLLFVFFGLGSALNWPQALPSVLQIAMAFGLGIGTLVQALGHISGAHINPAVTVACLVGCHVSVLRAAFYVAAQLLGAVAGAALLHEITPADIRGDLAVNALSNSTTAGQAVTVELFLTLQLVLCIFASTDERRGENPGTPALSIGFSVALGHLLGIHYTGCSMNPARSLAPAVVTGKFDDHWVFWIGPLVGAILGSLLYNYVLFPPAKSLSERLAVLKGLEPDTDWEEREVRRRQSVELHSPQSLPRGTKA

[2] = target: T1, wild-type Aquaporin-2 (untagged); remark: listed apart in the source
[3] = target: T1, wild-type Aquaporin-2 (untagged); experiment: cell-based or functional assay
[4] = target: T2, GFP-tagged wild-type Aquaporin-2 (human, UniProt P41181 1-271); experiment: co-IP; Xenopus oocytes co-injected with 0.5 ng mRNA of an untagged AQP2 variant and 1 ng (equimolar) of a GFP-tagged form, 24 h; total membranes solubilised in 2% deoxycholate in PBS, 100,000 x g supernatant; IP with goat anti-GFP and protein-G magnetic beads at room temperature; blot with anti-AQP2 of the untagged 29 kDa band; densitometry in % of wt-AQP2, 4 assays; conditions: partners not purified
T2 construct: Aquaporin-2 (AQP2), human, wild type, from pT7Ts-GFP-AQP2 (subcloned through the pAc-GFP vector); 58 kDa with GFP; also called GFP-wt-AQP2; GFP-tagged-WT; source: Xenopus laevis oocytes, cRNA injected; total membranes solubilised in 2% deoxycholate
T2 sequence (looked up): T1 sequence (looked up)

[5] = target: T3, GFP-tagged Aquaporin-2 D150E (human, UniProt P41181 1-271, D150E); experiment: as above; conditions: partners not purified
T3 construct: Aquaporin-2 (AQP2), human, recessive NDI mutation D150E, GFP-tagged form; The methods describe only how pT7Ts-GFP-AQP2 (wild type) was made; also called GFP-tagged D150E; source: Xenopus laevis oocytes, cRNA injected; total membranes solubilised in 2% deoxycholate
T3 sequence (looked up): T1 sequence (looked up) with D150E

[6] = target: T4, GFP-tagged Aquaporin-2 V24A (human, UniProt P41181 1-271, V24A); experiment: as above; conditions: partners not purified
T4 construct: Aquaporin-2 (AQP2), human, recessive NDI mutation V24A, GFP-tagged form; The methods describe only how pT7Ts-GFP-AQP2 (wild type) was made; also called GFP-tagged V24A; source: Xenopus laevis oocytes, cRNA injected; total membranes solubilised in 2% deoxycholate
T4 sequence (looked up): T1 sequence (looked up) with V24A

B1: Aquaporin-2 L22V (untagged) (natural protein)
chain: T1 sequence (looked up) with L22V
With B1 as the binder, how does the net increase (gain of function) in water permeability (Pf) of oocytes when expressed along wt-AQP2, in % of the wt-AQP2 activity (% of the wt-AQP2 activity) [1] read?
The net increase (gain of function) in water permeability (Pf) of oocytes when expressed along wt-AQP2, in % of the wt-AQP2 activity (% of the wt-AQP2 activity) was 106.

B2: Aquaporin-2 R254Q (untagged) (natural protein)
chain: T1 sequence (looked up) with R254Q
With B2 as the binder, how does the water permeability (Pf) of oocytes injected with 1 ng mRNA mixtures of wt/mut ratios 4/0 to 0/4, in % of pure wt-AQP2; the printed value is of the 2/2 ratio; dominant negative effect (% of pure wt-AQP2) [2] read?
The water permeability (Pf) of oocytes injected with 1 ng mRNA mixtures of wt/mut ratios 4/0 to 0/4, in % of pure wt-AQP2; the printed value is of the 2/2 ratio; dominant negative effect (% of pure wt-AQP2) was 14.

B3: Aquaporin-2 A147T (untagged) (natural protein)
chain: T1 sequence (looked up) with A147T
Which net increase (gain of function) in water permeability (Pf) of oocytes when expressed along wt-AQP2, in % of the wt-AQP2 activity (% of the wt-AQP2 activity) [1] does the source give for B3 here?
The net increase (gain of function) in water permeability (Pf) of oocytes when expressed along wt-AQP2, in % of the wt-AQP2 activity (% of the wt-AQP2 activity) was 45.

B4: Aquaporin-2 T126M (untagged) (natural protein)
chain: T1 sequence (looked up) with T126M
Which net increase (gain of function) in water permeability (Pf) of oocytes when expressed along wt-AQP2, in % of the wt-AQP2 activity (% of the wt-AQP2 activity) [1] does the source give for B4 here?
Its net increase (gain of function) in water permeability (Pf) of oocytes when expressed along wt-AQP2, in % of the wt-AQP2 activity (% of the wt-AQP2 activity) is 42.

B5: Aquaporin-2 R187C (untagged) (natural protein, human, UniProt P41181 1-271, looked up)
chain: T1 sequence (looked up) with R187C
B5 was tested. Which “gain of function in water permeability (Pf) of oocytes on coexpression with wt-AQP2 (specific activity with wt-AQP2 minus without), in % of wt-AQP2 activity; not functionally recovered” value [3] did it give?
The value was 0.4 % of wt-AQP2 activity.

B6: Aquaporin-2 D150E (untagged) (natural protein, human, UniProt P41181 1-271, looked up)
chain: T1 sequence (looked up) with D150E
notes: Aquaporin-2 (AQP2), human, recessive NDI mutation D150E from reported clinical cases, made by site-directed mutagenesis in pT7Ts; also called rec-AQP2; source: Xenopus laevis oocytes, cRNA injected; total membranes solubilised in 2% deoxycholate
What does the source list for B6?
gain of function in water permeability (Pf) of oocytes on coexpression with wt-AQP2 (specific activity with wt-AQP2 minus without), in % of wt-AQP2 activity [3]: 65.2 % of wt-AQP2 activity; co-precipitated untagged band, densitometry in % of wt-AQP2 (wt/rec heteromers) [4]: 86 % of wt-AQP2; co-precipitated untagged band, densitometry in % of wt-AQP2 (rec/rec homomers) [5]: 30 % of wt-AQP2

B7: Aquaporin-2 V24A (untagged) (natural protein, human, UniProt P41181 1-271, looked up)
chain: T1 sequence (looked up) with V24A
notes: Aquaporin-2 (AQP2), human, recessive NDI mutation V24A from reported clinical cases, made by site-directed mutagenesis in pT7Ts; also called rec-AQP2; source: Xenopus laevis oocytes, cRNA injected; total membranes solubilised in 2% deoxycholate
What does the source list for B7?
gain of function in water permeability (Pf) of oocytes on coexpression with wt-AQP2 (specific activity with wt-AQP2 minus without), in % of wt-AQP2 activity [3]: 63.9 % of wt-AQP2 activity; water permeability (Pf) of oocytes injected with 1 ng mRNA mixtures of wt/mut ratios 4/0 to 0/4, in % of pure wt-AQP2; the printed value is of the 2/2 ratio [3]: 87 % of pure wt-AQP2; co-precipitated untagged band, densitometry in % of wt-AQP2 (wt/rec heteromers) [4]: 75 % of wt-AQP2; co-precipitated untagged band, densitometry in % of wt-AQP2 (rec/rec homomers) [6]: 26 % of wt-AQP2
